Source: the supplement of paper PMC10567573
± gives the standard deviation.

Assay: protein stability index of a GFP-peptide fusion (GPS, HEK-293T) (PSI 1-6); higher = more stable
Conditions: c terminus: a fixed tail appended
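Further: 24-mer peptide tiles fused after GFP, lentivirally expressed, FACS-sorted into six equal bins by GFP/DsRed ratio, decoded by Illumina sequencing, PSI is the read-weighted mean bin number.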

| Sequence | protein stability index (treatment: DMSO) | protein stability index (treatment: MLN4924 1 uM, 8 h) |
| --- | --- | --- |
| YLQKIEEFAEMVEREEEDDALDSE [KCNG1] | 5 ± 0.51 | 5.15 ± 0.17 |
| HVPTVWAIDQYRVCQEVLERSRDV [RHOBTB1] | 2.83 ± 0.22 | 3.08 ± 0.3 |
| KEAKTKYPNYEFISDNSISWSAGL [FUT8] | 2.52 ± 0.25 | 2.95 ± 0.23 |
| LRSCYFSDPDCSMRPTLIDLLPTF [FBXO39] | 2.46 ± 0.35 | 2.2 ± 0.26 |
| CFKGELPLRAVHINLEEKEKQIRS [PLEKHN1] | 3.95 ± 0.18 | 3.96 ± 0.33 |
| EGRKKAFSTCGSHLTVVAIFYGSG [OR3A1] | 2.77 ± 0.4 | 3.15 ± 0.38 |
| ADGVKPQTNSTKNSAAATSPKGTL [CAMK2B] | 5.24 ± 0.14 | 5.4 ± 0.3 |
| IVNSTEESDDAFDTVTIPVPSEEP [IQUB] | 5.5 ± 0.25 | 5.55 ± 0.21 |
| TTGSKELDKLLQGGIETGSITEMF [RAD51] | 3.51 ± 0.27 | 3.76 ± 0.51 |
| FIMDSCDELIPEYLNFIRGVVDSE [HSP90AB1] | 2.37 ± 0.13 | 2.32 ± 0.32 |
| KANSPLKGHERTVQYLQHLGTENL [VPS39] | 3.85 ± 0.3 | 3.71 ± 0.31 |
| ISHQQCWASTSPGTDLPLSEIPRG [TRIM15] | 3.51 ± 0.21 | 3.63 ± 0.53 |
| DSAKREVKQKISPYFKSNDVVCKN [FAN1] | 3.95 ± 0.35 | 4 ± 0.31 |
| LPGACNIPANVSNCNWFCEGSFNG [KRT33B] | 2.33 ± 0.27 | 2.36 ± 0.22 |
| YAVTPLPWCPHLVAVCPIPAAGLD [HDAC6] | 2.99 ± 0.49 | 2.33 ± 0.48 |
| VQQDPALSSNREAHQHRDKMQQSK [CSNK1G3] | 5.16 ± 0.54 | 5.27 ± 0.21 |
| PNYTMEGERPEEGVAGGLNRNQGL [TCF25] | 5.22 ± 0.15 | 5.22 ± 0.37 |
| FFLKHPDKDVRLLVACCLADIFRI [PDS5B] | 2.95 ± 0.81 | 2.75 ± 0.17 |
| LLPKSRENYLNRCMDQERLRREST [FCHO1] | 3.31 ± 0.17 | 3.21 ± 0.16 |
| GYRGYQYILECDHHGGDYKHWREW [CRYBA1] | 2.16 ± 0.25 | 1.93 ± 0.14 |
| PPVLSFRLVHTTAIEHFQPNADLL [FCHO1] | 2.54 ± 0.15 | 2.17 ± 0.25 |
| SGRPHLPGKKKIRWDPVRRRFIQS [KLHDC10] | 3.35 ± 0.26 | 3.21 ± 0.4 |
| YFCYKAILEFAEKEGMVSSGQNLL [PTPN9] | 2.2 ± 0.31 | 2.38 ± 0.46 |

| Sequence | protein stability index (treatment: DMSO) | protein stability index (treatment: MLN4924 1 uM, 8 h) |
| --- | --- | --- |
| SEEDGEARTQMILLRRSVEGASSD [PHTF1] | 5.18 ± 0.21 | 5.23 ± 0.12 |
| DFGSAAASGSFPSQVTATSGNGDF [CLINT1] | 4.95 ± 0.17 | 4.69 ± 0.26 |
| SLDKVQRSLGPRAPSLRRHVLIHN [SERTAD3] | 3.02 ± 0.32 | 2.96 ± 0.29 |
| EDAYKIRIRIDDEPANLDILDTAG [RIT1] | 3.38 ± 0.28 | 3.47 ± 0.65 |
| PAPATQMPSTPGFVGYNPYSHLAY [SMARCE1] | 2.37 ± 0.21 | 2.44 ± 0.27 |
| SGAEGHSHSCYHDTRSGFWYVCRT [TRIM35] | 2.45 ± 0.17 | 2.64 ± 0.24 |
| QLSRDSTLGGKAFHITNDEPIPFW [NSDHL] | 2.89 ± 0.18 | 3.07 ± 0.55 |
| SPEVESLPVASSSTLLPLAPSNST [NFE2L1] | 5.04 ± 0.23 | 5.27 ± 0.13 |
| FQMVLEGGVCCTVTLNFNVPGEFK [GFOD1] | 3.1 ± 0.41 | 3.14 ± 0.31 |
| ESGKSTIVKQMKIIHEAGYSEEEC [GNAI1] | 5.16 ± 0.18 | 4.85 ± 0.13 |
| PEDGRIFAQRTFDYELLQMLQIVV [PCDHGC5] | 2.19 ± 0.4 | 2.3 ± 0.36 |
| CLRKYGNANVWKYFTDLFDYLPLT [PPP2CA] | 2.4 ± 0.57 | 2 ± 0.31 |
| LQGKDAWLPLHYAAWQGHLPIVKL [RIPK4] | 2.21 ± 0.38 | 2.48 ± 0.42 |
| PVELYTAFQHTPTSITLTASRVSK [KMT2E] | 3.63 ± 0.095 | 3.71 ± 0.13 |
| VEKEEEPDPEPPPVTPQVGEGRKS [SMG5] | 5.48 ± 0.13 | 5.53 ± 0.21 |
| PPEPLSQVSMWDQRWQDHQPLLPI [APBB1IP] | 2.76 ± 0.75 | 3.72 ± 1.1 |
| PESDILQPVPNTTEPDYKSKDWVF [STK38L] | 4.45 ± 0.32 | 4.55 ± 0.19 |
| MVGGGQPCGPNMSEVSCKKRDDYL [DCTD] | 4.11 ± 0.33 | 4.21 ± 0.19 |
| KTPLHQKHAAFVTPDQKYSMDNTP [MYBL2] | 4.14 ± 0.38 | 4.23 ± 0.2 |
| EEEDLRRRLKYFFMSPCDKFRAKG [MCOLN1] | 2.65 ± 0.41 | 3.15 ± 0.5 |
| NQNSWGTGEDVKVILKNSQGEEVA [LMNB1] | 4.99 ± 0.22 | 4.85 ± 0.13 |
| QPQDRNQALGTHRPVNKLAELQCE [RASAL3] | 4.77 ± 0.37 | 4.88 ± 0.25 |
| RPQHSHSNKKRPSLDGRDPGNGTH [ELOA2] | 4.94 ± 0.44 | 4.82 ± 0.39 |

| Sequence | protein stability index (treatment: DMSO) | protein stability index (treatment: MLN4924 1 uM, 8 h) |
| --- | --- | --- |
| LGPESWQQIAMDPEEVKSLDSNGA [BCL2L13] | 5.16 ± 0.16 | 5.24 ± 0.21 |
| LRLPMLNTEVVQVAAGRTQKAGVT [NEK8] | 3.1 ± 0.33 | 3.47 ± 0.23 |
| SPWADGTPCGPAQACMGGRCLHMD [ADAMTS4] | 4.28 ± 0.21 | 4.47 ± 0.36 |
| MTSLTQRSSGLVQRRTEASRNAAD [GOLPH3] | 4.89 ± 0.27 | 5.03 ± 0.19 |
| WFSDPSDTALLNLLPMLDALRFTA [CTDNEP1] | 2.73 ± 0.58 | 2.98 ± 0.67 |
| NKISRFQAPISAPEYTYGISNIDT [MFF] | 3.42 ± 0.28 | 3.56 ± 0.45 |
| DESLTDLEAQPYEAVFLRAVKLYN [P3H4] | 2.58 ± 0.21 | 2.71 ± 0.36 |
| PDNEQLMEEVISPRQVSYTPQHHE [IQUB] | 5.16 ± 0.4 | 5.32 ± 0.19 |
| WLQERYEIVGNLGEGTFGKVVECL [CLK3] | 2.24 ± 0.068 | 2.27 ± 0.12 |
| VLENNLEAVARHMLIFSLALEEPE [DNAAF3] | 2.74 ± 1.1 | 2.52 ± 0.37 |
| EDNLSLVCLPRSEDDDCDDDDDDD [DRICH1] | 5.48 ± 0.42 | 5.51 ± 0.075 |
| RYHRFISFALYLAGFCMFVLSLVK [CDS1] | 2.02 ± 0.21 | 2.08 ± 0.44 |
| TKQWTLIAKHLKGRLGKQCRERWH [MYBL2] | 2.51 ± 0.68 | 2.26 ± 0.38 |
| TQQFKAEKLKEKLKMKEREEAWVK [PPP2R5C] | 3.26 ± 0.64 | 3.72 ± 0.62 |
| GLGPTSEPFPSSDDSPRSALAAAT [SPAG8] | 4.95 ± 0.19 | 5.18 ± 0.038 |
| TAYIRVKVDGPRSPSYGRSRSRSR [SRSF1] | 3.75 ± 0.21 | 4 ± 0.29 |
| GRPGIVAWTLINLSFAAKQRELHS [DHCR7] | 2.81 ± 0.31 | 3.02 ± 1 |
| PGFYATYESTLFEDQVPALEAPED [MIA2] | 5.18 ± 0.27 | 4.92 ± 0.36 |
| SRSHDRLPYQRRYRERRDSDTYRC [CLK3] | 4.09 ± 0.27 | 4.24 ± 0.36 |
| CGSFQVTTGLQVPSAVRCLQKRGS [FSD1] | 2.96 ± 0.2 | 2.8 ± 0.17 |
| KENPECPVLKRSSESMENINSGYE [KMT2E] | 5.13 ± 0.2 | 5.01 ± 0.23 |
| LMVGPNFRVGKKIGCGNFGELRLG [CSNK1G3] | 1.9 ± 0.23 | 2.58 ± 0.59 |
| AVVVLDQGSRHWQKLREESAARVV [DUSP5] | 2.85 ± 0.34 | 2.72 ± 0.23 |

| Sequence | protein stability index (treatment: DMSO) | protein stability index (treatment: MLN4924 1 uM, 8 h) |
| --- | --- | --- |
| CETVTCCLFSERDAAGAPRDASDP [SMAD6] | 4.49 ± 0.25 | 4.62 ± 0.12 |
| ILFVNSEFETLYNEHKSCEEKSVK [CLK3] | 2.74 ± 0.25 | 3.05 ± 0.3 |
| LRKSDMLEKEQVAHIRAERDILVE [STK38L] | 3.8 ± 0.35 | 4.17 ± 0.13 |
| EKYGAVREVILKELAEATWCGIST [ZBED1] | 2.97 ± 0.36 | 2.68 ± 0.35 |
| PGDMLLQVNEINFENMSNDDAVRV [DVL3] | 4.4 ± 0.35 | 4.37 ± 0.21 |
| SRRYTEMALPFFSLAEVRVGYQSQ [MYORG] | 2.3 ± 0.16 | 2.29 ± 0.039 |
| GVFKFLRSEAVAQLWGQKKKNSNM [ELF3] | 2.83 ± 0.18 | 2.41 ± 0.33 |
| YPFQDSEPVLLFGKIRRGAYALPA [TRIB3] | 2.48 ± 0.27 | 2.66 ± 0.12 |
| PNRVLAPEQSLKKTKTSEYPIIFV [SPANXN3] | 2.22 ± 0.17 | 2.12 ± 0.34 |
| EEAWVKIENLAKANPQYTVYSQAS [PPP2R5C] | 3.29 ± 0.16 | 3.48 ± 0.18 |
| LRGKECCINRFQQVESRWGYSGTS [BTBD1] | 2.47 ± 0.18 | 2.72 ± 0.16 |
| TEFRKGAQSLPGPCAAAREGRLER [IRX6] | 4.53 ± 0.17 | 4.62 ± 0.21 |
| NQMKERQGLFFDMEAYLPKKNGLY [TMEM120A] | 2.65 ± 0.077 | 2.73 ± 0.15 |
| RGRASGFAGSMFGSVALGPVCPTV [KRT71] | 2.7 ± 0.14 | 2.88 ± 0.28 |
| CTWSIFQSIEYAGQQDQVKLHDFF [PPEF2] | 2.54 ± 0.62 | 2.37 ± 0.46 |
| MSTKESDFLCLLGVSYTFDNEDSE [MIA2] | 2.92 ± 0.14 | 2.91 ± 0.29 |
| FIDKEDLKDTYASLGKTNVKDDEL [MYL5] | 4.8 ± 0.15 | 4.92 ± 0.19 |
| VPGHQTPSDLDQFSDSSLIEDSQA [LURAP1L] | 5.39 ± 0.15 | 5.41 ± 0.17 |
| HNRVSKEDEDIYKLRHDLKKTSIT [PLK2] | 4.02 ± 0.2 | 4.12 ± 0.081 |
| TVECYNPRTNEWTYVAKMSEPHYG [KLHL13] | 2.36 ± 0.1 | 2.52 ± 0.72 |
